Results as given in patent US10800813.
Numbered stars: 1 amine (or outer) side, 2 acyl side, 3 side chain; on linkers, the order of the positions; unused ones are H or OH. Bridge positions count the residues as written; N and C are the ends. Ends that are not written are not given here. TBMB = c1c(C[*:1])cc(C[*:3])cc1C[*:2]

Target: Human factor XIa (human), P03951
Test: enzyme inhibition assay
Details: remark: other sources report otherwise

Ki: 75 µM
Binder: ACTYPYKCLHQNLCA (linker 2-8-14 via TBMB) [2A10]
